Experimental data: patent publication US20210052637A1 (CONSIGLI NAZIONALE DELLE RICERCHE, published 2021)

Biological target: T1, folate receptor Frα (UniProt P15328 25-234, limits assumed)
T1 construct: whole, on cells; also called α-FR; folate receptor alpha
Test: flow cytometry on IGROV-1, KB and A431-tFR cells; 0.025 mg/mL antibody fragment on nanocubes, 4° C., 1 hour; detected with anti-myc primary antibody and Alexa-488 secondary antibody
Protocol: The A431-tFR and A431-MOCK cells provided by the IRCSS Foundation, National Cancer Institute, Milan, Italy, were grown in the modified Dulbecco culture medium (DMEM, Merck, Kenilworth, USA). IGROV-1 cells (ATCC, UK) were cultured in RPMI-1640 (RPMI-1640, Merck, Kenilworth, USA). The KB cells (ATCC, UK) were cultured in RPMI-1640 without folic acid (RPMI-1640 without folic acid, Merck, Kenilworth, USA). All culture media were added with 10% inactivated fetal bovine serum (FBS), 1% penicillin-streptomycin and 1% glutamine at 37° C., 95% humidity with 5% CO2. The cells were divided every 3-4 days before reaching confluence.
In these experiments, the functionalized nanocubes of the invention comprising the antibody fragment in a quantity of 0.025 mg/mL were incubated in PBS at 4° C. for 1 hour with 5×10⁵ cells of the cell lines indicated above. As a negative control, the non-functionalised nanocubes with polymer coating were used. Then, after three washes, the cells were incubated for 1 hour at 4° C. with the primary antibody that binds to the myc sequence of the C4 antibody fragment. Following a wash in PBS a secondary antibody conjugated to the fluorescent probe Alexa-488 was added to the cells, capable of binding the Fc portion of the primary antibody.

T1 sequence (P15328 25-234 limits assumed): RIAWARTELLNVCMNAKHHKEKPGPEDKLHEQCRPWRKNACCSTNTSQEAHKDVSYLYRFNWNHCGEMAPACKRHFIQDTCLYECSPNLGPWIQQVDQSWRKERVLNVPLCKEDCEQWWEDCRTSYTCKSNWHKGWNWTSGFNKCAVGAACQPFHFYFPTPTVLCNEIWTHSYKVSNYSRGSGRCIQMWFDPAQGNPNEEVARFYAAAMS

B1: single chain variable fragment of human antibody C4 (C4 scFv), attached to iron oxide nanocubes (scFv)
scFv: NVQLVESGGGLVQPGRSLRLSCTTSGFTFGDYAMIWARQAPGKGLEWVSSISSSSSYIYYADSVKGRFTISRDNAKNSLYLQMNSLRAEDTAVYYCARERYDFWSGMDVWGKGTTVTVSSGGGGSGGGGSGGSAQSALTQPASVSGSPGQSITISCTGTSSDVGSYNLVSWYQQHPGKAPKLMIYEGSKRPSGVSNRFSGSKSGNAASLTISGLQAEDEADYYCQSYDSSLSVVFGGGTKLTVLGAAAHHHHHHGAAEQ
modifications: histidine tag complexed to Ni2+ of PEG-NTA-Ni linker on the polymer-coated iron oxide nanocube
notes: In the assays the scFv was not free; It was held on polymer-coated cubic iron oxide nanoparticles through its histidine tag and PEG-NTA-Ni, with or without PEG-oxaliplatin; also called scFvC4; C4 antibody fragment
binding result: binds
